Test results from the RNAGym collection of RNA variant scans (doi:10.7554/elife.90254).

B1: LINE1-mini (parent)
chain: GGCAGAGCUCAACACAGCGUGGCAAAGUGGCUGUGGCUAGACUGCC

Variants of: B1
Assay: self-cleavage, relative activity (ratio to wild type); higher = more cleavage; in vitro, sequencing; the parent is a self-cleaving ribozyme

**Q.** With AGCAGAGCUCAAUACAGCGUGGCAAAGUGGCUGUGGCUAGACUGCC [G1A C13U] as the variant, how does the self-cleavage read?
**A.** 0.2

**Q.** For AGCAGAGCUCAAAACAGCGUGGCAAAGUGGCUGUGGCUAGACUGCC [G1A C13A], which self-cleavage is on record?
**A.** 0.13

**Q.** With AGCAGAGCUCAAGACAGCGUGGCAAAGUGGCUGUGGCUAGACUGCC [G1A C13G] as the variant, how does the self-cleavage read?
**A.** 0.1

**Q.** With AGCAGAGCUCCACACAGCGUGGCAAAGUGGCUGUGGCUAGACUGCC [G1A A11C] as the variant, how does the self-cleavage read?
**A.** 0.04

**Q.** For AGCAGAGCUCGACACAGCGUGGCAAAGUGGCUGUGGCUAGACUGCC [G1A A11G], which self-cleavage is on record?
**A.** 0.06

**Q.** With AGCAGAGCUCUACACAGCGUGGCAAAGUGGCUGUGGCUAGACUGCC [G1A A11U] as the variant, how does the self-cleavage read?
**A.** 0.17

**Q.** Which self-cleavage does the source give for AGCAGAGCUGAACACAGCGUGGCAAAGUGGCUGUGGCUAGACUGCC [G1A C10G] here?
**A.** 0.18

**Q.** With AGCAGAGCUAAACACAGCGUGGCAAAGUGGCUGUGGCUAGACUGCC [G1A C10A] as the variant, how does the self-cleavage read?
**A.** 0.12

**Q.** Which self-cleavage does the source give for AGCAGAGCUUAACACAGCGUGGCAAAGUGGCUGUGGCUAGACUGCC [G1A C10U] here?
**A.** 0.35

**Q.** For AGCAGAGCUCAACACAGCGUGGCAAAGUGGCUGUGGCUAGACUGCA [G1A C46A], which self-cleavage is on record?
**A.** 2.61

**Q.** For AGCAGAGCUCAACACAGCGUGGCAAAGUGGCUGUGGCUAGACUGCG [G1A C46G], which self-cleavage is on record?
**A.** 2.92

**Q.** Which self-cleavage does the source give for AGCAGAGCUCAACACAGCGUGGCAAAGUGGCUGUGGCUAGACUGCU [G1A C46U] here?
**A.** 2.95

**Q.** With AGCAGAGCUCAACAUAGCGUGGCAAAGUGGCUGUGGCUAGACUGCC [G1A C15U] as the variant, how does the self-cleavage read?
**A.** 1.02

**Q.** For AGCAGAGCUCAACAAAGCGUGGCAAAGUGGCUGUGGCUAGACUGCC [G1A C15A], which self-cleavage is on record?
**A.** 0.06

**Q.** With AGCAGAGCUCAACAGAGCGUGGCAAAGUGGCUGUGGCUAGACUGCC [G1A C15G] as the variant, how does the self-cleavage read?
**A.** 0.08

**Q.** For AGCAGAGCUCACCACAGCGUGGCAAAGUGGCUGUGGCUAGACUGCC [G1A A12C], which self-cleavage is on record?
**A.** 0.04

**Q.** Which self-cleavage does the source give for AGCAGAGCUCAUCACAGCGUGGCAAAGUGGCUGUGGCUAGACUGCC [G1A A12U] here?
**A.** 0.19

**Q.** For AGCAGAGCUCAGCACAGCGUGGCAAAGUGGCUGUGGCUAGACUGCC [G1A A12G], which self-cleavage is on record?
**A.** 0.04

**Q.** With AGCAGAGCUCAACGCAGCGUGGCAAAGUGGCUGUGGCUAGACUGCC [G1A A14G] as the variant, how does the self-cleavage read?
**A.** 0.39

**Q.** Which self-cleavage does the source give for AGCAGAGCUCAACUCAGCGUGGCAAAGUGGCUGUGGCUAGACUGCC [G1A A14U] here?
**A.** 0.27

**Q.** Which self-cleavage does the source give for AGCAGAGCUCAACCCAGCGUGGCAAAGUGGCUGUGGCUAGACUGCC [G1A A14C] here?
**A.** 0.1

**Q.** For AGCAGAUCUCAACACAGCGUGGCAAAGUGGCUGUGGCUAGACUGCC [G1A G7U], which self-cleavage is on record?
**A.** 0.3

**Q.** Which self-cleavage does the source give for AGCAGAACUCAACACAGCGUGGCAAAGUGGCUGUGGCUAGACUGCC [G1A G7A] here?
**A.** 0.51

**Q.** With AGCAGACCUCAACACAGCGUGGCAAAGUGGCUGUGGCUAGACUGCC [G1A G7C] as the variant, how does the self-cleavage read?
**A.** 0.6

**Q.** Which self-cleavage does the source give for AGCAGAGCUCAACACAGCUUGGCAAAGUGGCUGUGGCUAGACUGCC [G1A G19U] here?
**A.** 0.94

**Q.** Which self-cleavage does the source give for AGCAGAGCUCAACACAGCAUGGCAAAGUGGCUGUGGCUAGACUGCC [G1A G19A] here?
**A.** 1.77

**Q.** For AGCAGAGCUCAACACAGCCUGGCAAAGUGGCUGUGGCUAGACUGCC [G1A G19C], which self-cleavage is on record?
**A.** 1.28

**Q.** For AGCAGAGCUCAACACAGCGUGGCAAAGUGGCUGUGGCUAGAAUGCC [G1A C42A], which self-cleavage is on record?
**A.** 0.06

**Q.** Which self-cleavage does the source give for AGCAGAGCUCAACACAGCGUGGCAAAGUGGCUGUGGCUAGAGUGCC [G1A C42G] here?
**A.** 0.06

**Q.** With AGCAGAGCUCAACACAGCGUGGCAAAGUGGCUGUGGCUAGAUUGCC [G1A C42U] as the variant, how does the self-cleavage read?
**A.** 0.16

**Q.** For AGCAGUGCUCAACACAGCGUGGCAAAGUGGCUGUGGCUAGACUGCC [G1A A6U], which self-cleavage is on record?
**A.** 1.55

**Q.** Which self-cleavage does the source give for AGCAGGGCUCAACACAGCGUGGCAAAGUGGCUGUGGCUAGACUGCC [G1A A6G] here?
**A.** 0.09

**Q.** For AGCAGCGCUCAACACAGCGUGGCAAAGUGGCUGUGGCUAGACUGCC [G1A A6C], which self-cleavage is on record?
**A.** 0.81

**Q.** For AGCAGAGCUCAACACAUCGUGGCAAAGUGGCUGUGGCUAGACUGCC [G1A G17U], which self-cleavage is on record?
**A.** 0.13

**Q.** With AGCAGAGCUCAACACACCGUGGCAAAGUGGCUGUGGCUAGACUGCC [G1A G17C] as the variant, how does the self-cleavage read?
**A.** 0.18

**Q.** For AGCAGAGCUCAACACAACGUGGCAAAGUGGCUGUGGCUAGACUGCC [G1A G17A], which self-cleavage is on record?
**A.** 0.15

**Q.** For AGCAGAGCUCAACACAGCGUGGCAAAGUGGCUAUGGCUAGACUGCC [G1A G33A], which self-cleavage is on record?
**A.** 0.09

**Q.** With AGCAGAGCUCAACACAGCGUGGCAAAGUGGCUCUGGCUAGACUGCC [G1A G33C] as the variant, how does the self-cleavage read?
**A.** 0.05

**Q.** With AGCAGAGCUCAACACAGCGUGGCAAAGUGGCUUUGGCUAGACUGCC [G1A G33U] as the variant, how does the self-cleavage read?
**A.** 0.09

**Q.** With AGCAGAGCUCAACACAGCGUGGCAAAGUGGCUGUGGCUAUACUGCC [G1A G40U] as the variant, how does the self-cleavage read?
**A.** 0.1

**Q.** Which self-cleavage does the source give for AGCAGAGCUCAACACAGCGUGGCAAAGUGGCUGUGGCUAAACUGCC [G1A G40A] here?
**A.** 0.11

**Q.** With AGCAGAGCUCAACACAGCGUGGCAAAGUGGCUGUGGCUACACUGCC [G1A G40C] as the variant, how does the self-cleavage read?
**A.** 0.07

**Q.** For AGCAGAGCUCAACACAGCGUGGCAACGUGGCUGUGGCUAGACUGCC [G1A A26C], which self-cleavage is on record?
**A.** 0.78

**Q.** Which self-cleavage does the source give for AGCAGAGCUCAACACAGCGUGGCAAGGUGGCUGUGGCUAGACUGCC [G1A A26G] here?
**A.** 1.58

**Q.** With AGCAGAGCUCAACACAGCGUGGCAAUGUGGCUGUGGCUAGACUGCC [G1A A26U] as the variant, how does the self-cleavage read?
**A.** 0.53

**Q.** Which self-cleavage does the source give for AGCAGAGUUCAACACAGCGUGGCAAAGUGGCUGUGGCUAGACUGCC [G1A C8U] here?
**A.** 0.78

**Q.** With AGCAGAGGUCAACACAGCGUGGCAAAGUGGCUGUGGCUAGACUGCC [G1A C8G] as the variant, how does the self-cleavage read?
**A.** 0.41

**Q.** With AGCAGAGAUCAACACAGCGUGGCAAAGUGGCUGUGGCUAGACUGCC [G1A C8A] as the variant, how does the self-cleavage read?
**A.** 0.88

**Q.** With AGCAGAGCUCAACACAGCGUGGCAAACUGGCUGUGGCUAGACUGCC [G1A G27C] as the variant, how does the self-cleavage read?
**A.** 0.86

**Q.** For AGCAGAGCUCAACACAGCGUGGCAAAUUGGCUGUGGCUAGACUGCC [G1A G27U], which self-cleavage is on record?
**A.** 1.95

**Q.** For AGCAGAGCUCAACACAGCGUGGCAAAAUGGCUGUGGCUAGACUGCC [G1A G27A], which self-cleavage is on record?
**A.** 1.81

**Q.** For AGCAGAGCUCAACACAGCGUGGCUAAGUGGCUGUGGCUAGACUGCC [G1A A24U], which self-cleavage is on record?
**A.** 1.15

**Q.** With AGCAGAGCUCAACACAGCGUGGCCAAGUGGCUGUGGCUAGACUGCC [G1A A24C] as the variant, how does the self-cleavage read?
**A.** 0.56

**Q.** With AGCAGAGCUCAACACAGCGUGGCGAAGUGGCUGUGGCUAGACUGCC [G1A A24G] as the variant, how does the self-cleavage read?
**A.** 2.89

**Q.** With AGCAGAGCUCAACACAGCGUGGCAAAGUGGCUGUGUCUAGACUGCC [G1A G36U] as the variant, how does the self-cleavage read?
**A.** 0.1

**Q.** With AGCAGAGCUCAACACAGCGUGGCAAAGUGGCUGUGACUAGACUGCC [G1A G36A] as the variant, how does the self-cleavage read?
**A.** 0.18
